13 molecules from patent US20210246166A1 (Bayer, published 2021) can be followed below.

Numbered stars: 1 amine (or outer) side, 2 acyl side, 3 side chain; on linkers, the order of the positions; unused ones are H or OH. Bridge positions count the residues as written; N and C are the ends. Square brackets hold non-standard residues; d marks the D form. Ends that are not written are not given here. * marks the point of attachment. X7 = 4‑(3,5-Dimethyl-1,2-oxazol-4-yl)‑L‑phenylalanine, Cc1noc(C)c1-c1ccc(C[C@H](N[*:1])C(=O)[*:2])cc1; Pro(trans-4-F) = O=C(O)[C@@H]1C[C@@H](F)CN1; Oic = O=C(O)[C@@H]1C[C@@H]2CCCC[C@@H]2N1; Morpholine(3S-CO) = O=C(O)[C@@H]1COCCN1; Butanoyl(3,3-Me2) = CC(C)(C)CC(=O)*; Cyclopropanecarbonyl = O=C(C1CC1)*; tBuAla = CC(C)(C)C[C@H](N)C(=O)O; Pen = CC(C)(S)[C@H](N)C(=O)O; 4Amb = NCc1ccc(C(=O)O)cc1; Isovaleryl = CC(C)CC(=O)*; NMeC = CN[C@@H](CS)C(=O)O; Sar = CNCC(=O)O

The target in assay [1] is T1, recombinant human MASP1 active protease (amino acids 297-699, C-terminal His Tag) (human, UniProt P48740 297-699).
T1 sequence: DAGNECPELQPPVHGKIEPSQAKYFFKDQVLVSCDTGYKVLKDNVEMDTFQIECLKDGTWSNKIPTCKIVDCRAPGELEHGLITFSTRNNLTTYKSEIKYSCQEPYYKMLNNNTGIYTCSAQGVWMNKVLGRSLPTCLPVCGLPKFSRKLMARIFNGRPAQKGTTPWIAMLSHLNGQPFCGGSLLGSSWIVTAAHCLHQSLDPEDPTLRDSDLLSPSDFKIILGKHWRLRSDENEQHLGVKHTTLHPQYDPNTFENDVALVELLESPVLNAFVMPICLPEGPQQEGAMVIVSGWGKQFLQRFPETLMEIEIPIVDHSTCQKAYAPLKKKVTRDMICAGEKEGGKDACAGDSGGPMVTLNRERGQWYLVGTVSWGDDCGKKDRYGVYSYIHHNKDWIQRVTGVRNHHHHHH
The assay is described as follows: cell-based or functional assay.

Assay [2] addresses recombinant human MASP2 active protease (amino acids 297-686, C-terminal His Tag) (human, UniProt O00187 297-686). The assay is described as follows: cell-based or functional assay.

Sequence of recombinant human MASP2 active protease (amino acids 297-686, C-terminal His Tag) (O00187 other isoform, or with tags, fused parts or gaps limits assumed): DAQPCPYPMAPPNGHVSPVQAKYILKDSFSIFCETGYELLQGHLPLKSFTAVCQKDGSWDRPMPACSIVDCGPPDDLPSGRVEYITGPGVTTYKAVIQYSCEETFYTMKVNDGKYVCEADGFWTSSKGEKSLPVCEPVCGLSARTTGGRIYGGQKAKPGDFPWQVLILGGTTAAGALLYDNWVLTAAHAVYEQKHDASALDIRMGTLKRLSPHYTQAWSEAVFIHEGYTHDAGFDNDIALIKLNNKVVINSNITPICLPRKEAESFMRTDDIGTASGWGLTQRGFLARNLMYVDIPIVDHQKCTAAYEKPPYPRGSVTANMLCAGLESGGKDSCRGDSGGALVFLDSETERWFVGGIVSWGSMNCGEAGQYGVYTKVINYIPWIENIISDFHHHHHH

Take GICSRSL[Morpholine(3S-CO)]PICIPD-OH (disulfide 3-11) [Example 357: GIC+SRSL-(Morpholine-3-carboxylic)-PIC+IPD-OH]: in assay [1], the “human MASP1 IC50” value was determined as 31 nM. In addition, in assay [2], the “human MASP2 IC50” value came to 1300 nM.

B1: Example 362: (4-(Aminomethyl)benzoic acid)-IC+SRSLPPI-((N-Me)C)+IPD-NH2 (peptide)
peptide: [4Amb]ICSRSLPPI[NMeC]IPD-NH2
modifications: disulfide 3-11; N-terminus assumed
SMILES: CC[C@H](C)[C@H](NC(=O)c1ccc(CN)cc1)C(=O)N[C@H]1CSSC[C@@H](C(=O)N[C@H](C(=O)N2CCC[C@H]2C(=O)N[C@@H](CC(=O)O)C(N)=O)[C@@H](C)CC)N(C)C(=O)[C@H]([C@@H](C)CC)NC(=O)[C@@H]2CCCN2C(=O)[C@@H]2CCCN2C(=O)[C@H](CC(C)C)NC(=O)[C@H](CO)NC(=O)[C@H](CCCNC(=N)N)NC(=O)[C@H](CO)NC1=O
As to B1, the “human MASP1 IC50” value in assay [1] was 33 nM. In addition, the “human MASP2 IC50” value in assay [2] came out at 65 nM.

B2: Example 368: IC+SRSLP-(Oic)-I-(Pen)+I-OH (peptide)
peptide: ICSRSLP[Oic]I[Pen]I-OH
modifications: disulfide 2-10; N-terminus assumed
SMILES: CC[C@H](C)[C@H](N)C(=O)N[C@H]1CSSC(C)(C)[C@@H](C(=O)N[C@H](C(=O)O)[C@@H](C)CC)NC(=O)[C@H]([C@@H](C)CC)NC(=O)[C@@H]2C[C@@H]3CCCC[C@@H]3N2C(=O)[C@@H]2CCCN2C(=O)[C@H](CC(C)C)NC(=O)[C@H](CO)NC(=O)[C@H](CCCNC(=N)N)NC(=O)[C@H](CO)NC1=O
On to B2, for which, in assay [1], the “human MASP1 IC50” value turned out to be 35 nM. Further, the “human MASP2 IC50” value in assay [2] came to 1200 nM.

B3: Example 353: (Cyclopropanecarboxylic)-IC+SRS-((tBu)A)-PPI-((N-Me)C)+I-NH2 (peptide)
peptide: Cyclopropanecarbonyl-ICSRS[tBuAla]PPI[NMeC]I-NH2
modifications: disulfide 2-10
SMILES: CC[C@H](C)[C@H](NC(=O)[C@@H]1CSSC[C@H](NC(=O)[C@@H](NC(=O)C2CC2)[C@@H](C)CC)C(=O)N[C@@H](CO)C(=O)N[C@@H](CCCNC(=N)N)C(=O)N[C@@H](CO)C(=O)N[C@@H](CC(C)(C)C)C(=O)N2CCC[C@H]2C(=O)N2CCC[C@H]2C(=O)N[C@@H]([C@@H](C)CC)C(=O)N1C)C(N)=O
B3: the “human MASP1 IC50” value in assay [1] was 28 nM. In addition, the “human MASP2 IC50” value in assay [2] came out at 50 nM.

Regarding Tranexamic-ICSRSLPPI[NMeC]IPD-NH2 (disulfide 2-10) [Example 364: (Tranexamic)-IC+SRSLPPI-((N-Me)C)+IPD-NH2], the “human MASP1 IC50” value in assay [1] amounted to 33 nM. Further, the “human MASP2 IC50” value in assay [2] was determined as 98 nM.

B4: Example 352: (D-(+)Biotin)-(Ahx)-AIC+SRS-((tBu)A)-PPI-(Pen)+IPD-OH (peptide)
peptide: XXAICSRS[tBuAla]PPI[Pen]IPD-OH
modifications: disulfide 5-13; not fully specified (N-terminus); printed as (D-(+)Biotin)-(Ahx)-AIC + SRS-((tBu)A)-PPI-(Pen) + IPD-OH
Regarding B4, the “human MASP1 IC50” value in assay [1] was 28 nM. Moreover, the “human MASP2 IC50” value in assay [2] was 71 nM.

B5: Example 367: ((N-Me)G)-IC+SRSLPPIC+I-(Oic)-D-OH (peptide)
peptide: [Sar]ICSRSLPPICI[Oic]D-OH
modifications: disulfide 3-11; N-terminus assumed
SMILES: CC[C@H](C)[C@H](NC(=O)CNC)C(=O)N[C@H]1CSSC[C@@H](C(=O)N[C@H](C(=O)N2[C@H](C(=O)N[C@@H](CC(=O)O)C(=O)O)C[C@@H]3CCCC[C@@H]32)[C@@H](C)CC)NC(=O)[C@H]([C@@H](C)CC)NC(=O)[C@@H]2CCCN2C(=O)[C@@H]2CCCN2C(=O)[C@H](CC(C)C)NC(=O)[C@H](CO)NC(=O)[C@H](CCCNC(=N)N)NC(=O)[C@H](CO)NC1=O
As for B5, the “human MASP1 IC50” value in assay [1] is 35 nM. The “human MASP2 IC50” value in assay [2] came out at 600 nM.

B6: Example 359: (tert-Butylacetic acid)-IC+SRS-((tBu)A)-PPI-(Pen)+IP-NH2 (peptide)
peptide: {Butanoyl(3,3-Me2)}-ICSRS[tBuAla]PPI[Pen]IP-NH2
modifications: disulfide 2-10
SMILES: CC[C@H](C)[C@H](NC(=O)CC(C)(C)C)C(=O)N[C@H]1CSSC(C)(C)[C@@H](C(=O)N[C@H](C(=O)N2CCC[C@H]2C(N)=O)[C@@H](C)CC)NC(=O)[C@H]([C@@H](C)CC)NC(=O)[C@@H]2CCCN2C(=O)[C@@H]2CCCN2C(=O)[C@H](CC(C)(C)C)NC(=O)[C@H](CO)NC(=O)[C@H](CCCNC(=N)N)NC(=O)[C@H](CO)NC1=O
For the molecule B6, the “human MASP1 IC50” value in assay [1] is 31 nM. Also, the “human MASP2 IC50” value in assay [2] stood at 34 nM.

B7: Example 354: ((N-Me)G)-IC+SRSL-((trans-4-Fluoro)P)-PIC+IPD-OH (peptide)
peptide: [Sar]ICSRSL[Pro(trans-4-F)]PICIPD-OH
modifications: disulfide 3-11; N-terminus assumed
SMILES: CC[C@H](C)[C@H](NC(=O)CNC)C(=O)N[C@H]1CSSC[C@@H](C(=O)N[C@H](C(=O)N2CCC[C@H]2C(=O)N[C@@H](CC(=O)O)C(=O)O)[C@@H](C)CC)NC(=O)[C@H]([C@@H](C)CC)NC(=O)[C@@H]2CCCN2C(=O)[C@@H]2C[C@@H](F)CN2C(=O)[C@H](CC(C)C)NC(=O)[C@H](CO)NC(=O)[C@H](CCCNC(=N)N)NC(=O)[C@H](CO)NC1=O
As to B7, the “human MASP1 IC50” value in assay [1] came to 29 nM. The “human MASP2 IC50” value in assay [2] worked out at 510 nM.

B8: Example 361: ((N-Me)G)-PIC+SRS-((tBu)A)-PPI-(Pen)+IP-NH2 (peptide)
peptide: [Sar]PICSRS[tBuAla]PPI[Pen]IP-NH2
modifications: disulfide 4-12; N-terminus assumed
SMILES: CC[C@H](C)[C@H](NC(=O)[C@@H]1CCCN1C(=O)CNC)C(=O)N[C@H]1CSSC(C)(C)[C@@H](C(=O)N[C@H](C(=O)N2CCC[C@H]2C(N)=O)[C@@H](C)CC)NC(=O)[C@H]([C@@H](C)CC)NC(=O)[C@@H]2CCCN2C(=O)[C@@H]2CCCN2C(=O)[C@H](CC(C)(C)C)NC(=O)[C@H](CO)NC(=O)[C@H](CCCNC(=N)N)NC(=O)[C@H](CO)NC1=O
Consider B8, for which the “human MASP1 IC50” value in assay [1] is 32 nM. The “human MASP2 IC50” value in assay [2] was 1000 nM.

B9: Example 360: (4-(3,5-Dimethyl-1,2-oxazol-4-yl)-L-phenylalanine)-IC+SRSLP-(Oic)-I-(Pen)+IP-NH2 (peptide)
peptide: [X7]ICSRSLP[Oic]I[Pen]IP-NH2
modifications: disulfide 3-11; N-terminus assumed
SMILES: CC[C@H](C)[C@H](NC(=O)[C@@H](N)Cc1ccc(-c2c(C)noc2C)cc1)C(=O)N[C@H]1CSSC(C)(C)[C@@H](C(=O)N[C@H](C(=O)N2CCC[C@H]2C(N)=O)[C@@H](C)CC)NC(=O)[C@H]([C@@H](C)CC)NC(=O)[C@@H]2C[C@@H]3CCCC[C@@H]3N2C(=O)[C@@H]2CCCN2C(=O)[C@H](CC(C)C)NC(=O)[C@H](CO)NC(=O)[C@H](CCCNC(=N)N)NC(=O)[C@H](CO)NC1=O
Turning to B9, the “human MASP1 IC50” value in assay [1] was found to be 31 nM. The “human MASP2 IC50” value in assay [2] was 55 nM.

B10: Example 358: (Isovaleric)-IC+SRS-((tBu)A)-PPI-((N-Me)C)+I-NH2 (peptide)
peptide: Isovaleryl-ICSRS[tBuAla]PPI[NMeC]I-NH2
modifications: disulfide 2-10
SMILES: CC[C@H](C)[C@H](NC(=O)[C@@H]1CSSC[C@H](NC(=O)[C@@H](NC(=O)CC(C)C)[C@@H](C)CC)C(=O)N[C@@H](CO)C(=O)N[C@@H](CCCNC(=N)N)C(=O)N[C@@H](CO)C(=O)N[C@@H](CC(C)(C)C)C(=O)N2CCC[C@H]2C(=O)N2CCC[C@H]2C(=O)N[C@@H]([C@@H](C)CC)C(=O)N1C)C(N)=O
For the molecule B10, in assay [1], the “human MASP1 IC50” value was found to be 31 nM. Moreover, the “human MASP2 IC50” value in assay [2] was found to be 19 nM.

As for AICSRSLP[(3S-OH)P]ICIPD-NH2 (disulfide 3-11) [Example 355: AIC+SRSLP-((3S-OH)P)-IC+IPD-NH2], the “human MASP1 IC50” value in assay [1] worked out at 29 nM. In assay [2], the “human MASP2 IC50” value was 930 nM.
